Where no end group is shown, it is not given here.
Key:
[1] = molecular target: T1, human CRF receptor type 1 (human, UniProt P34998 24-415); assay: cell-based or functional assay
T1 sequence (looked up): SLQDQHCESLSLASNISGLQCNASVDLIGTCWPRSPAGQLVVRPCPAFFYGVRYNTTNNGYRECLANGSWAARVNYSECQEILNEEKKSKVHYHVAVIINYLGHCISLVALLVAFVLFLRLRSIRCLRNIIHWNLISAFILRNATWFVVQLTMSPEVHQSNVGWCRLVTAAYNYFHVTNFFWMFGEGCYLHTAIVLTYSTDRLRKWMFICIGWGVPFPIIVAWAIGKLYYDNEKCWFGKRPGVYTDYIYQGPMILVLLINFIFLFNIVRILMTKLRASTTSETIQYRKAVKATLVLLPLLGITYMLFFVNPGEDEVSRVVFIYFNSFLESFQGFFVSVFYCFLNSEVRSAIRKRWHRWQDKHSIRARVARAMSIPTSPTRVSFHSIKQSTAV

[2] = molecular target: T2, endogenous CRF-R1 of primary rat anterior pituitary cells (rat, UniProt P35353 24-415); assay: cell-based or functional assay
T2 sequence (looked up): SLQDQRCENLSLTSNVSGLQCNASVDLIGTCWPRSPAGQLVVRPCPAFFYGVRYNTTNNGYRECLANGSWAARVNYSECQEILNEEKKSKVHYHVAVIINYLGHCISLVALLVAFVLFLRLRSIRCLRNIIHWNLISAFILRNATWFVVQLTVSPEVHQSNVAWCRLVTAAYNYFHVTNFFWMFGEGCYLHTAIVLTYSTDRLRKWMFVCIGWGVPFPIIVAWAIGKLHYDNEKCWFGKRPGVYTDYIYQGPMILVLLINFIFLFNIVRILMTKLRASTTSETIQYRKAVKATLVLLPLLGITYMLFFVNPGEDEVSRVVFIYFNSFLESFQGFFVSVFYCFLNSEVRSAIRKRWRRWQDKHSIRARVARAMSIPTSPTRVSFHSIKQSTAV

| cAMP in CHO cells stably expressing hCRF-R1 (EC50, nM) [1] | cAMP accumulation in primary rat anterior pituitary cells, EC50 [2] | Binder |
| --- | --- | --- |
| > 100 nM |  | VILSLDVPIGLLRILLEQARYKAARNQAATNAQILAHV (peptide, UniProt Q99ML8 73-110, looked up) [Urocortin II (mouse)] |
| > 100 nM |  | FTLSLDVPTNIMNLLFNIAKAKNLRAQAAANAHLMAQI-NH2 [Urocortin III (human)] |
| > 100 nM |  | FTLSLDVPTNIMNILFNIDKAKNLRAKAAANAQLMAQI-NH2 [Urocortin III (mouse)] |
|  | 2.3 nM | DDPPLSIDLTFHLLRTLLELARTQSQRERAEQNRIIFDSV (peptide, UniProt P55090 81-120, looked up) [Urocortin (rat)] |
| > 100 nM |  | IVLSLDVPIGLLQILLEQARARAAREQATTNARILARV (peptide, UniProt Q96RP3 72-109, looked up) [Urocortin II (human)] |

From US20040143095A1 (RESEARCH DEVELOPMENT FOUNDATION, published 2004)
